This is an account of results in patent US20260042862A1 (AGENCY FOR SCIENCE TECHNOLOGY AND RESEARCH, published 2026).

Experiment [1] addresses T1, recombinant human GPC-3 protein (human, UniProt P51654 25-559, limits assumed).
T1 construct: also called glypican-3; recombinant GPC-3 protein
Put plainly: SPR, Biacore T200. The method, then:
Affinity of 24 anti-GPC-3 IgG₁ antibodies was measured via Surface Plasmon Resonance (SPR) analysis using Biacore™ T200 system and shown in Table E3 (below).
Background: Surface plasmon resonance follows binding to a sensor surface in real time, without labels.

In experiment [2] the target is T1, recombinant human GPC-3 protein. Put plainly: binding ELISA with biotin-hGPC-3, EC50 calculated from the curves of FIG. 1A to 1C.
The target in experiment [3] is T2, mouse GPC-3 on the surface of transduced cells (Hepa1-6-mGPC-3, MC38-mGPC-3) (mouse, UniProt Q8CFZ4 25-553).
T2 construct: whole, on cells
T2 sequence (Q8CFZ4 25-553 limits assumed): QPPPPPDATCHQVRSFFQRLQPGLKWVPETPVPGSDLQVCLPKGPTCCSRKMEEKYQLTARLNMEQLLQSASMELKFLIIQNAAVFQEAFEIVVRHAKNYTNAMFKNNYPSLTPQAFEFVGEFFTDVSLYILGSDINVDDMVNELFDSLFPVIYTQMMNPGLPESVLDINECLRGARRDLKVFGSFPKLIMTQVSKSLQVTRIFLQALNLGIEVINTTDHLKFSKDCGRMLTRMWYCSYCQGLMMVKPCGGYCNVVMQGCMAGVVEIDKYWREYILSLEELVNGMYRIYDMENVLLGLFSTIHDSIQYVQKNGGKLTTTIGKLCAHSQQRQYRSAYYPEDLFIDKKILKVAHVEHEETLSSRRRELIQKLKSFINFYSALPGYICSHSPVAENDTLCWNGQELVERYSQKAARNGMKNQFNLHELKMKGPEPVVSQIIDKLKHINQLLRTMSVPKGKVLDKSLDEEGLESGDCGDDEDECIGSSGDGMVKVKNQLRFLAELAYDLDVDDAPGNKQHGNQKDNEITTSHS
As to the kind of experiment: flow cytometry histograms, 20 nM antibody, Hepa1-6-mGPC-3 against parental Hepa1-6 cells. (In general: In flow cytometry, cells or beads pass a laser one at a time.)

Experiment [4] deals with T3, recombinant mouse GPC-3 protein (mouse, UniProt Q8CFZ4 25-558, limits assumed, biotinylated (sites not given)).
T3 construct: Biotinylated for the cross-reactivity ELISA; also called mouse homolog of GPC-3 protein
T3 sequence (Q8CFZ4 25-558 limits assumed): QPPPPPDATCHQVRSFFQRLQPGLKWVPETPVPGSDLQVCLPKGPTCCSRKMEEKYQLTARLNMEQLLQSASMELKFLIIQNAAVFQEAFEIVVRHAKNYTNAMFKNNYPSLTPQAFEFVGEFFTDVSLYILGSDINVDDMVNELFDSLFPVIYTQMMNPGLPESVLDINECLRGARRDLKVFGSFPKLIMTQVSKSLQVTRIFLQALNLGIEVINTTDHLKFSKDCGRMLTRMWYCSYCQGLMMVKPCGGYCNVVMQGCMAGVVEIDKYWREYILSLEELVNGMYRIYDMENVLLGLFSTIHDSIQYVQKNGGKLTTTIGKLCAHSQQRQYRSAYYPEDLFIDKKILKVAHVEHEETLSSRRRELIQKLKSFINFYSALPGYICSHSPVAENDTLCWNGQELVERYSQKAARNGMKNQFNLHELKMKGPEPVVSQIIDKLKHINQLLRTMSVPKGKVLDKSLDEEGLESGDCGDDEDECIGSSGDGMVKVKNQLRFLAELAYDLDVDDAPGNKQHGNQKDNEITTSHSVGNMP
Put plainly: cross-reactivity binding ELISA with biotinylated recombinant GPC-3, absorbance 450nm-570nm. A general note: In an ELISA, binding on a coated surface is turned into a signal by an enzyme label.

B1: anti-GPC-3 IgG1 clone 1D8 (antibody, V domains shown)
VH: QVQLVQSGAEVKKPGASVKVSCKASGYTFTSYGISWVRQAPGQGLEWMGWISAYNGNTNYAQKLQGRVTMTTDTSTSTAYMELRSLRSDDTAVYYCARDGGLIAAAFGYYYYGMDVWGQGTT
VL: EIVLTQSPGTLSLSPGERATLSCRASQSVSSYLAWYQQKPGQAPRLLIYGASSRATGIPDRFSGSGSGTDFTLTISRLEPEDFAVYYCQQYERPPTFGGGTK
notes: Tested as IgG1; also called monoclonal antibody 1D8
The Kd is the equilibrium constant for the complex coming apart. For orientation: koff means the rate constant with which the complex falls apart. By kon is commonly meant a measure of how fast the partners come together. As usually defined, the EC50 is the concentration at which the effect is half-maximal. Take B1: in experiment [1], the Kd came out at 13.7 nM, the koff came out at 0.0053 s⁻¹ and the on-rate (kon) turned out to be 388000 M⁻¹ s⁻¹. Also, in experiment [2], the EC50 was 9.01 nM. The binding result in experiment [3] is given as “no binding (tested: 20 nM)”. Besides, in experiment [4], the binding result is listed as “no binding”.
